Measurements published in the supplement of paper PMC11780869.

Test system: Bacillus subtilis
Test: cleaved RNA product abundance (RNA/gDNA barcode ratio) relative to median wild-type variant (ratio to wild type); higher = more accumulation of the downstream cleavage product
Details: experiment (reporter, strain, medium): exp 8a: truncated aprE reporter, strain BJT201 with 2% xylose (RNase J1 expressed); cleavage site: glnRA (positions -5 to +31 mutated)
Summary of the method: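 Truncated aprE or tetM reporter mRNAs with barcoded RNase Y cleavage-site windows, mutagenized from oligos at a 9% error rate, sat in the B. subtilis chromosome. Cells grew in LB at 37°C from OD600 0.0003 to 0.3. Gel-selected cleaved RNA was reverse transcribed and its barcodes sequenced with those from genomic DNA, collapsing by UMI. Cleaved product abundance equals the RNA:gDNA barcode ratio per construct over the median construct with the unmutated site.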

Sequence	cleaved RNA product abundance
CGACATGTCCCGCTTCTTTCATTAATACGTTAGCATCTGTTTTGCTATATACATTTACCTTTTAAGAGGAGGAAT	0.87
CGACATGTCCCGCTTCTTTCATTAATACGTTAGCTACTGTTTTGCTATATACATTTACCTTTTAAGAGGAGGAAT	0.562
CGACATGTCCCGCTTCTTTCATTAATACGTTAGTAACTGTTTTGCTAAATACATTTACCTTTTAAGAGGAGGAAT	0.285
CGACATGTCCCGCTTCTTTCATTAATACGTTAGTAACTGTTTTGCTATATACATTTACCTTTTAAGAGGAGGAAT	0.334
CGACATGTCCCGCTTCTTTCATTAATACGTTATCAACTGTTTTGCTATATACATTTACCTTTTAAGAGGAGGAAT	0.281
CGACATGTCCCGCTTCTTTCATTAATACGTTCGCAACTGTTTTGCTATATACATTTACCTTTTAAGAGGAGGAAT	0.216
CGACATGTCCCGCTTCTTTCATTAATACGTTTGCAACTGTTTTGCTATATACATTTACCTTTTAAGAGGAGGAAT	0.769
CGACATGTCCCGCTTCTTTCATTAATACTTTAGCAACTGTTTTGCTATATACATTTACCTTTTAAGAGGAGGAAT	0.611
CGACATGTCCCGCTTCTTTCATTAATAGGTTAGCAACTGTTTTGCTATATACATTTACCTTTTAAGAGGAGGAAT	0.766
CGACATGTCCCGCTTCTTTCATTAATATGTTAGCAACTGTTTTGCTATATACATTTACCTTTTAAGAGGAGGAAT	0.819
CGACATGTCCCGCTTCTTTCATTAATCAATTAGCAACTGTTTTGCTATATACATTTACCTTTTAAGAGGAGGAAT	0.946
CGACATGTCCCGCTTCTTTCATTAATCAGGTAGCAACTGTTTTGCTATATACATTTACCTTTTAAGAGGAGGAAT	0.783
CGACATGTCCCGCTTCTTTCATTAATCAGTAAGCAACTGTTTTGCTATATACATTTACCTTTTAAGAGGAGGAAT	0.489
CGACATGTCCCGCTTCTTTCATTAATCAGTCAGCAACTGTTTTGCTATATACATTTACCTTTTAAGAGGAGGAAT	0.367
CGACATGTCCCGCTTCTTTCATTAATCAGTGAGCAACTGTTTTGCTATATACATTTACCTTTTAAGAGGAGGAAT	0.37
CGACATGTCCCGCTTCTTTCATTAATCAGTTAACAACTGTTTTGCTATATACATTTACCTTTTAAGAGGAGGAAT	0.249
CGACATGTCCCGCTTCTTTCATTAATCAGTTAACTTTTTTGCTATATATATTTACCTTTTAAGAGGAGGAATTTT	0.238
CGACATGTCCCGCTTCTTTCATTAATCAGTTACCAACTGTTTTGCTATATACATTTACCTTTTAAGAGGAGGAAT	0.267
CGACATGTCCCGCTTCTTTCATTAATCAGTTAGAAACTGTTTTGCTATATACATTTACCTTTTAAGAGGAGGAAT	0.328
CGACATGTCCCGCTTCTTTCATTAATCAGTTAGCAACAGTTTTGCTATATACATTTACCTTTTAAGAGGAGGAAT	0.832
CGACATGTCCCGCTTCTTTCATTAATCAGTTAGCAACTATTTTGCTATATACATTTACCTTTTAAGAGGAGGAAT	1.97
CGACATGTCCCGCTTCTTTCATTAATCAGTTAGCAACTGTATTGCTATATACATTTACCTTTTAAGAGGAGGAAT	0.59

Sequence	cleaved RNA product abundance
CGACATGTCCCGCTTCTTTCATTAATCAGTTAGCAACTGTGTTGCTATATACATTTACCTTTTAAGAGGAGGAAT	0.251
CGACATGTCCCGCTTCTTTCATTAATCAGTTAGCAACTGTTATGCTATATACATTTACCTTTTAAGAGGAGGAAT	0.578
CGACATGTCCCGCTTCTTTCATTAATCAGTTAGCAACTGTTGTGCTATATACATTTACCTTTTAAGAGGAGGAAT	0.354
CGACATGTCCCGCTTCTTTCATTAATCAGTTAGCAACTGTTTAGCTATATACATTTACCTTTTAAGAGGAGGAAT	0.775
CGACATGTCCCGCTTCTTTCATTAATCAGTTAGCAACTGTTTTACTATATACATTTACCTTTTAAGAGGAGGAAT	0.611
CGACATGTCCCGCTTCTTTCATTAATCAGTTAGCAACTGTTTTCCTATATACATTTACCTTTTAAGAGGAGGAAT	0.433
CGACATGTCCCGCTTCTTTCATTAATCAGTTAGCAACTGTTTTGATATATACATTTACCTTTTAAGAGGAGGAAT	0.648
CGACATGTCCCGCTTCTTTCATTAATCAGTTAGCAACTGTTTTGCAATATACATTTACCTTTTAAGAGGAGGAAT	0.332
CGACATGTCCCGCTTCTTTCATTAATCAGTTAGCAACTGTTTTGCTATACACATTTACCTTTTAAGAGGAGGAAT	0.225
CGACATGTCCCGCTTCTTTCATTAATCAGTTAGCAACTGTTTTGCTATATAAATTTACCTTTTAAGAGGAGGAAT	0.682
CGACATGTCCCGCTTCTTTCATTAATCAGTTAGCAACTGTTTTGCTATATACATATACCTTTTAAGAGGAGGAAT	1.04
CGACATGTCCCGCTTCTTTCATTAATCAGTTAGCAACTGTTTTGCTATATACATTAACCTTTTAAGAGGAGGAAT	0.984
CGACATGTCCCGCTTCTTTCATTAATCAGTTAGCAACTGTTTTGCTATATACATTTAACTTTTAAGAGGAGGAAT	0.983
CGACATGTCCCGCTTCTTTCATTAATCAGTTAGCAACTGTTTTGCTATATACATTTACATTTTAAGAGGAGGAAT	0.595
CGACATGTCCCGCTTCTTTCATTAATCAGTTAGCAACTGTTTTGCTATATACATTTACCATTAAGAGGAGGAATT	1.4
CGACATGTCCCGCTTCTTTCATTAATCAGTTAGCAACTGTTTTGCTATATACATTTACCATTTAAGAGGAGGAAT	0.636
CGACATGTCCCGCTTCTTTCATTAATCAGTTAGCAACTGTTTTGCTATATACATTTACCCTTTAAGAGGAGGAAT	1.22
CGACATGTCCCGCTTCTTTCATTAATCAGTTAGCAACTGTTTTGCTATATACATTTACCGTTTAAGAGGAGGAAT	0.649
CGACATGTCCCGCTTCTTTCATTAATCAGTTAGCAACTGTTTTGCTATATACATTTACCTTTTAAGAGGAGGAAT	0.763
CGACATGTCCCGCTTCTTTCATTAATCAGTTAGCAACTGTTTTGCTATATACATTTACTTTTTAAGAGGAGGAAT	0.903
CGACATGTCCCGCTTCTTTCATTAATCAGTTAGCAACTGTTTTGCTATATACATTTATCTTTTAAGAGGAGGAAT	0.854
CGACATGTCCCGCTTCTTTCATTAATCAGTTAGCAACTGTTTTGCTATATACTTTTACCTTTTAAGAGGAGGAAT	0.343

Sequence	cleaved RNA product abundance
CGACATGTCCCGCTTCTTTCATTAATCAGTTAGCAACTGTTTTGCTATATAGATTTACCTTTTAAGAGGAGGAAT	0.842
CGACATGTCCCGCTTCTTTCATTAATCAGTTAGCAACTGTTTTGCTATATATATTTACCTTTTAAGAGGAGGAAT	0.759
CGACATGTCCCGCTTCTTTCATTAATCAGTTAGCAACTGTTTTGTTATATACATTTACCTTTTAAGAGGAGGAAT	0.523
CGACATGTCCCGCTTCTTTCATTAATCAGTTAGCAACTGTTTTTCTATATACATTTACCTTTTAAGAGGAGGAAT	0.642
CGACATGTCCCGCTTCTTTCATTAATCAGTTAGCAACTTTTTTGCTATATACATTTACCTTTTAAGAGGAGGAAT	1.18
CGACATGTCCCGCTTCTTTCATTAATCAGTTAGCATCTGTTTTGCTATATACATTTACCTTTTAAGAGGAGGAAT	0.725
CGACATGTCCCGCTTCTTTCATTAATCAGTTAGCTACTGTTTTGCTATATACATTTACCTTTTAAGAGGAGGAAT	0.423
CGACATGTCCCGCTTCTTTCATTAATCAGTTAGTAACTGTTTTGCTATATACATTTACCTTTTAAGAGGAGGAAT	0.421
CGACATGTCCCGCTTCTTTCATTAATCAGTTATCAACTGTTTTGCTATATACATTTACCTTTTAAGAGGAGGAAT	0.307
CGACATGTCCCGCTTCTTTCATTAATCAGTTGGCAACTGTTTTGCTATATACATTTACCTTTTAAGAGGAGGAAT	0.497
CGACATGTCCCGCTTCTTTCATTAATCAGTTTGCAACTGTTTTGCTATATACATTTACCTTTTAAGAGGAGGAAT	0.686
CGACATGTCCCGCTTCTTTCATTAATCATTTAGCAACTGTTTTGCTATATACATTTACCTTTTAAGAGGAGGAAT	0.249
CGACATGTCCCGCTTCTTTCATTAATCCAATAGCAACTGTTTTGCTATATACATTTACCTTTTAAGAGGAGGAAT	0.553
CGACATGTCCCGCTTCTTTCATTAATCCATAAGCAACTGTTTTGCTATATACATTTACCTTTTAAGAGGAGGAAT	0.462
CGACATGTCCCGCTTCTTTCATTAATCCATCAGCAACTGTTTTGCTATATACATATACCTTTTAAGAGGAGGAAT	0.507
CGACATGTCCCGCTTCTTTCATTAATCCATCAGCAACTGTTTTGCTATATACATTTACCTTTTAAGAGGAGGAAT	0.41
CGACATGTCCCGCTTCTTTCATTAATCCATTAACAACTGTTTTGCTATATACATTTACCTTTTAAGAGGAGGAAT	0.198
CGACATGTCCCGCTTCTTTCATTAATCCATTACCAACTGTTTTACTATATACATTTACCTTTTAAGAGGAGGAAT	0.262
CGACATGTCCCGCTTCTTTCATTAATCCATTACCAACTGTTTTGCTATATACATTTACCTTTTAAGAGGAGGAAT	0.17
CGACATGTCCCGCTTCTTTCATTAATCCATTAGAAACTGTTTTGCTATATACATTTACCTTTTAAGAGGAGGAAT	0.244
CGACATGTCCCGCTTCTTTCATTAATCCATTAGAAACTGTTTTGCTATATAGATTTACCTTTTAAGAGGAGGAAT	0.302
CGACATGTCCCGCTTCTTTCATTAATCCATTAGAAACTGTTTTTCTATTTACATTTACCTTTTAAGAGGAGGAAT	0.127
